Test results as given in patent US20220143136A1, “USE OF ANNEXINS IN PREVENTING AND TREATING MUSCLE MEMBRANE INJURY” (NORTHWESTERN UNIVERSITY, priority 2018, published 2022).

How the values were obtained:
Anxa6^em1(GFP) mice = assay: Prednisone injection, annexin A6GFP repair cap after laser injury of isolated myofibers; format: in vivo, mouse; details: 1 mg/kg intraperitoneal, myofibers isolated 24 hours post injection; vs DMSO control
Experimental: Multiphoton laser injury and imaging. Isolated fibers were subjected to laser-induced damage at room temperature using the Nikon A1R-MP multiphoton microscope. Imaging was performed using a 25×1.1 NA objective directed by the NIS-Elements AR imaging software. Green fluorescence protein (GFP) and FM 4-64 were excited using a 920 nm wavelength laser and emission wavelengths of […] and 629 nm were collected respectively. To induce laser damage on isolated myofibers, a diffraction limited spot (diameter approximately 410 nm) was created on the lateral membrane of the myofiber using a 920 nm wavelength laser at 10-15% laser power for 1 second. Time lapse images were collected as follows: one image was collected prior to damage, one image upon damage, then every 8 s for 80 s (10 images) followed by every 30 seconds for 5 min (10 images). At the end of the time lapsed image series, z-stack images were collected at 250 nm intervals through the damaged site on the myofiber directed by the NIS-Elements AR imaging software. Fluorescence intensity and cap area were measured using Fiji (NIH).
For prednisone studies, prednisone (catalog P6254) was resuspended in DMSO (catalog D2650, Sigma-Aldrich) at 5 mg/ml. Dosing was based on pretreatment weights (1 mg/kg body weight) in 30 μl total PBS. Mice were injected at 7 am on the day prior to imaging. […]

[1] = system: rat model of myocardial ischemia-reperfusion-induced injury; details: La et al., FASEB J. 2001; cited from earlier work
[2] = system: Duchenne muscular dystrophy boys; details: orally, 100 mg/kg; cited from earlier work
wildtype myofibers [3] = assay: Laser-induced membrane injury, FM 4-64 dye uptake; format: cell-based, mouse; details: mutant A6E233A-GFP vs wildtype annexin A6-GFP expressing myofibers
myofibers = assay: Annexin repair cap formation after laser injury at multiple Ca2+ concentrations; format: cell-based, mouse
Experimental: (§1) Electroporation, myofiber isolation, laser injury, cap and vesicle measurement. Flexor digitorum brevis (FDB) fibers were transfected with endo-free plasmid DNA by in vivo electroporation. Methods were described previously in (Demonbreun and McNally, 2015; Demonbreun et al., 2016b; DiFranco et al., 2009). Z-stack projections were acquired from consecutive acquisitions after the final time-lapse frame, approximately 4 minutes post damage, with a […] step size between slices. Z-stack renderings were constructed in FIJI. Measurement of the cap area and feret diameter were conducted from a single slice near the middle of the z-stack using FIJI imaging tools. Fibers expressing similar levels of tagged or GCaMP5G protein were compared. GCaMP5G Ca^2+ fluorescence was measured from the acquired timelapse images, using a standard rectangular ROI, placed inside the myofiber below the site of damage using FIJI. Fluorescence was expressed as F/F0. External vesicle number and GCaMP5G area were measured from endpoint z-stacks and max projection images using FIJI. Vesicles were considered external if they were found outside the sarcolemma assessed in brightfield and fluorescent channels. All measurements were acquired from myofibers isolated from at least n≥3 mice, n≥3 myofibers per mouse.
Calcium kinetics. FDB muscle was electroporated and isolated as described above. Myofibers were damaged in Ringers solution with Ca^2+ concentrations of 2 mM, 1 mM, 0.5 mM, 0.25 mM, 0.175 mM, 0.1 mM, 0.050 mM, and 0 mM. EDTA was added as a Ca^2+ chelating agent in only in the 0 mM Ca^2+ Ringers. Myofibers were isolated directly into 2 mM, 1 mM and 0.5 mM Ringers for those experiments respectively. For experiments using less than 0.5 mM Ca^2+ myofibers were isolated in 0.5 mM Ca^2+ Ringers and then diluted with 0 mM EDTA-free Ca^2+ Ringers. For 0 mM experiments, myofibers were isolated in 0.5 mM Ca^2+ Ringers and then replaced with 0 mM Ca^2++EDTA Ringers just prior to imaging. Co-electroporation of wildtype annexin+wildtype annexin constructs was performed in one mouse foot, while the contralateral foot was co-electroporated with wildtype annexin+mutant annexin. All measurements were acquired from myofibers isolated from at least n≥2 mice, n≥3 myofibers per mouse at each Ca^2+ concentration. Area-Ca^2+ curves were fitted with a Hill Curve at Ca^2+ concentrations ranging from 0-2 mM. Kinetic parameters were calculated using Prism Graphpad.
as §1, with “(Demonbreun A R, Quattrocelli M, Barefield D Y, Allen M V, Swanson K E,” for “(Demonbreun”, “McNally E M. An actin-dependent annexin complex mediates plasma membrane repair in muscle. The Journal of cell biology. 2016; 213(6):705-18; Demonbreun A R, and McNally E M. DNA Electroporation, Isolation and Imaging of Myofibers. Journal of visualized experiments: JoVE.” for “McNally,”, “106(106):e53551;” for “Demonbreun et al., 2016b;”, “M, Quinonez M, Capote J, and Vergara J. DNA transfection of mammalian skeletal muscles using in vivo electroporation. Journal of visualized experiments: JoVE. 2009; 32(32)).” for “et al., 2009).”, “Vesicles were considered external if they were found outside the sarcolemma assessed in brightfield and fluorescent channels. All measurements were acquired from myofibers isolated from at least n≥3 mice, n≥3 myofibers per mouse.” left out

wildtype myofibers [4] = assay: Laser injury FM 4-64 uptake, E coli versus HEK cell produced rANXA6; format: cell-based, mouse; details: 13 μg/ml and 130 μg/ml; for FM 4-64 dye uptake after laser injury: vs BSA control
Experimental: Myofiber isolation, laser injury, and dye measurement. For recombinant myofibers studies, myofibers were isolated from wildtype mice. Myofibers were incubated in Ringer's media with 13 μg/ml or 130 μg/ml human recombinant annexin, E coli or HEK cell produced. Bovine serum albumin (BSA) was used as a negative control. FM 4-64 ([…]) was added to the myofibers just prior to imaging. Fibers were subjected to laser-induced damage at room temperature using the Nikon A1R-MP multiphoton microscope. Imaging was performed using a 25×1.1 NA objective directed by the NIS-Elements AR imaging software. FM 4-64 was excited using a 920 nm wavelength laser and emission wavelengths of 575 nm and 629 nm were collected, respectively. To induce laser damage on isolated myofibers, a diffraction limited spot (diameter approximately 410 nm) was created on the lateral membrane of the myofiber using a 920 nm wavelength laser at 10-15% laser power for 1 second. FM 4-64 area was measured using FIJI from a single slice near the middle of the z-stack. Myofiber quality control was based on a number of characteristics including using adherent myofibers with intact sarcomere structure. Myofibers appeared devoid of tears or ruptures induced during the isolation protocol. The region of the myofiber selected for damage was linear and not located on a nucleus or neuromuscular junction.
Statistical analyses were performed with Prism (Graphpad, La Jolla, Calif.). Comparisons relied on ANOVA (1way ANOVA for 1 variable). P-values of less than or equal to 0.05 were considered significant. Error bars represent +/−standard error of the mean (SEM).

C[C@]12C=CC(=O)C=C1CC[C@@H]1[C@@H]2C(=O)C[C@@]2(C)[C@H]1CC[C@]2(O)C(=O)CO [prednisone]
annexin A6GFP repair cap size (Anxa6^em1(GFP) mice): reduced

AC2-26: N-terminal annexin A1 peptide (AMVSEFLKQAWFIENEEQEYVQTVK; UniProt P04083 2-26, looked up, fragment) [reference compound]
cardioprotection [1]: cardioprotective response

CC/C=C\C/C=C\C/C=C\C/C=C\C/C=C\C/C=C\CCC(=O)NCCNC(=O)c1ccccc1O [Edasalonexent]
muscle disease progression [2]: delayed muscle disease progression

B1: annexin A6E233A: Ca2+-binding mutant of annexin A6 (E233A), plasmid expressed, dominant negative (protein, UniProt P14824 2-673, looked up, variant E233A)
Annexin A6: AKIAQGAMYRGSVHDFPEFDANQDAEALYTAMKGFGSDKESILELITSRSNKQRQEICQNYKSLYGKDLIEDLKYELTGKFERLIVNLMRPLAYCDAKEIKDAISGVGTDEKCLIEILASRTNEQMHQLVAAYKDAYERDLESDIIGDTSGHFQKMLVVLLQGTRENDDVVSEDLVQQDVQDLYEAGELKWGTDEAQFIYILGNRSKQHLRLVFDEYLKTTGKPIEASIRGALSGDFEKLMLAVVKCIRSTPEYFAERLFKAMKGLGTRDNTLIRIMVSRSELDMLDIREIFRTKYEKSLYSMIKNDTSGEYKKALLKLCGGDDDAAGQFFPEAAQVAYQMWELSAVSRVELKGTVCAANDFNPDADAKALRKAMKGIGTDEATIIDIVTHRSNAQRQQIRQTFKSHFGRDLMADLKSEISGDLARLILGLMMPPAHYDAKQLKKAMEGAGTDEKTLIEILATRTNAEIRAINEAYKEDYHKSLEDALSSDTSGHFRRILISLATGNREEGGENRDQAQEDAQVAAEILEIADTPSGDKTSLETRFMTVLCTRSYPHLRRVFQEFIKKTNYDIEHVIKKEMSGDVKDAFVAIVQSVKNKPLFFADKLYKSMKGAGTDEKTLTRVMVSRSEIDLLNIRREFIEKYDKSLHQAIEGDTSGDFMKALLALCGGED
modifications: GFP tag
FM 4-64 fluorescence area after laser injury (wildtype myofibers [3]): increased
annexin A1, A2 and A6 cap size with co-expressed mutant annexin A6 (myofibers; compared to A1+A6, A2+A6, A6+A6 controls (heterotypic)): significant reduction
repair cap diameter (DMAX) / cap size of the co-expressed wildtype annexin of the same type (myofibers; wildtype+mutant vs wildtype+wildtype co-electroporation (homotypic)): significantly reduced

B2: recombinant annexin A1: recombinant annexin A1 protein (literature) (protein, UniProt P04083 2-346, looked up)
Annexin A1: AMVSEFLKQAWFIENEEQEYVQTVKSSKGGPGSAVSPYPTFNPSSDVAALHKAIMVKGVDEATIIDILTKRNNAQRQQIKAAYLQETGKPLDETLKKALTGHLEEVVLALLKTPAQFDADELRAAMKGLGTDEDTLIEILASRTNKEIRDINRVYREELKRDLAKDITSDTSGDFRNALLSLAKGDRSEDFGVNEDLADSDARALYEAGERRKGTDVNVFNTILTTRSYPQLRRVFQKYTKYSKHDMNKVLDLELKGDIEKCLTAIVKCATSKPAFFAEKLHQAMKGVGTRHKALIRIMVSRSEIDMNDIKAFYQKMYGISLCQAILDETKGDYEKILVALCGGN
cardioprotection [1]: cardioprotective response

B3: E coli produced rANXA6: human recombinant annexin A6 produced in E coli, from R&D Systems or CRO Evotec SE (protein, UniProt P08133 2-673, looked up)
Annexin A6: AKPAQGAKYRGSIHDFPGFDPNQDAEALYTAMKGFGSDKEAILDIITSRSNRQRQEVCQSYKSLYGKDLIADLKYELTGKFERLIVGLMRPPAYCDAKEIKDAISGIGTDEKCLIEILASRTNEQMHQLVAAYKDAYERDLEADIIGDTSGHFQKMLVVLLQGTREEDDVVSEDLVQQDVQDLYEAGELKWGTDEAQFIYILGNRSKQHLRLVFDEYLKTTGKPIEASIRGELSGDFEKLMLAVVKCIRSTPEYFAERLFKAMKGLGTRDNTLIRIMVSRSELDMLDIREIFRTKYEKSLYSMIKNDTSGEYKKTLLKLSGGDDDAAGQFFPEAAQVAYQMWELSAVARVELKGTVRPANDFNPDADAKALRKAMKGLGTDEDTIIDIITHRSNVQRQQIRQTFKSHFGRDLMTDLKSEISGDLARLILGLMMPPAHYDAKQLKKAMEGAGTDEKALIEILATRTNAEIRAINEAYKEDYHKSLEDALSSDTSGHFRRILISLATGHREEGGENLDQAREDAQVAAEILEIADTPSGDKTSLETRFMTILCTRSYPHLRRVFQEFIKMTNYDVEHTIKKEMSGDVRDAFVAIVQSVKNKPLFFADKLYKSMKGAGTDEKTLTRIMVSRSEIDLLNIRREFIEKYDKSLHQAIEGDTSGDFLKALLALCGGED
modifications: E. coli produced
notes: human recombinant annexin A6 produced in E coli, from R&D Systems or CRO Evotec SE
effect on membrane repair, E coli produced compared to mammalian cell produced protein (wildtype myofibers [4]): not significantly different
effect on membrane repair, E coli produced compared to mammalian cell produced protein (wildtype myofibers [4]; listed as annexin A6 protein produced in prokaryotic cells): performed as well as
FM 4-64 dye uptake after laser injury (wildtype myofibers [4]): significantly less

B4: mammalian HEK cell produced rANXA6: human recombinant annexin A6 produced in mammalian HEK cells (protein, UniProt P08133 2-673, looked up)
Annexin A6: B3 Annexin A6
FM 4-64 dye uptake after laser injury (wildtype myofibers [4]): significantly less
